Paper PMC4094350
Where two headings read alike, the source gives them in different places.

Legend:
[1] = target: GFP-Paxillin (UniProt P49023); experiment: FRET or BRET
[2] = target: GFP-Paxillin (UniProt P49023); experiment: FRET or BRET; remark: listed apart in the source
[3] = target: GFP-Paxillin (UniProt P49023); experiment: FRET or BRET; remark: listed apart in the source
[4] = target: FAK FAT (UniProt Q05397); experiment: ITC; details: cited from earlier work
Chain of UniProt Q05397 (Q05397 914-1045): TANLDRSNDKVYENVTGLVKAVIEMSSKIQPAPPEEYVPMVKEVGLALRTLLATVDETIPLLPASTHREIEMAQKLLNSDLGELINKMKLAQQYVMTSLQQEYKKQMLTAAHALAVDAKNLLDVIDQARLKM

Row | Substance | Kd [1] [nM] | Kd [2] [nM] | Kd [3] [nM] | Kd [4] [nM]
1 | FAT-mCherry (from UniProt P34152 1-1052) (domain or fragment) | 209 | 367 | 209 | –
2 | paxillin LD peptide LD motif (from UniProt P49023) | – | – | – | 10000
